Experimental data as given in patent US20260021119A1, “TETRACYCLINE DERIVATIVES” (ICM (INSTITUT DU CERVEAU ET DE LA MOELLE ÉPINIÈRE), priority 2022, published 2026).

Test system: p-tau (phosphorylated tau protein at Ser202, Thr205 residues)
Assay: p-tau (AT8) expression in cultured cortical neurons under oxidative stress
Assay type: cell-based, mouse
Set-up: key to Reduction of the % of p-tau+ somas: a favorable response, synonymous with a decrease in the number of p-tau+ cell bodies; ++: a favorable response, synonymous with a decrease in the number of p-tau+ cell bodies; +++=reference level; an unfavorable response is represented by a sign “−”, synonymous with an elevation of the number of p-tau+ cell bodies
Conditions: compounds 3 μM, APO 100 μg/mL; mouse cortical cultures exposed div 7-11 to DF12i
Procedure: A culture model of cortical neurons from mouse embryonic brain was used, in which neuronal cells were subjected to a maturation step until day in vitro (div) 7, before being gradually exposed to phenol red formulated DMEM/Nutrient mixture F12 Ham supplemented with 20 μg/mL of insulin, and 2 μM of the NMDA receptor blocker MK-801 (DF12i).
Precisely, after 4 days of exposure to DF12i, between 10-15% of surviving neurons show a very strong AT8 immunosignal in their somas while only 1 to 1.5% of neuronal cell bodies are found immunopositive under conditions where oxidative stress is repressed by treatment with bovine apotransferrin (APO; 100 µg/mL, Sigma Aldrich), a glycoprotein with iron chelating properties. Likewise, overexpression of p-tau in cortical cell bodies is reduced by the two non-antibiotic tetracyclines compound of formula (C) ([…]) and compound of formula (Ib) ([…]): see the following Table: […]

B1: apotransferrin (protein, UniProt Q29443 20-704, looked up)
Serotransferrin: DPERTVRWCTISTHEANKCASFRENVLRILESGPFVSCVKKTSHMDCIKAISNNEADAVTLDGGLVYEAGLKPNNLKPVVAEFHGTKDNPQTHYYAVAVVKKDTDFKLNELRGKKSCHTGLGRSAGWNIPMAKLYKELPDPQESIQRAAANFFSASCVPCADQSSFPKLCQLCAGKGTDKCACSNHEPYFGYSGAFKCLMEGAGDVAFVKHSTVFDNLPNPEDRKNYELLCGDNTRKSVDDYQECYLAMVPSHAVVARTVGGKEDVIWELLNHAQEHFGKDKPDNFQLFQSPHGKDLLFKDSADGFLKIPSKMDFELYLGYEYVTALQNLRESKPPDSSKDECMVKWCAIGHQERTKCDRWSGFSGGAIECETAENTEECIAKIMKGEADAMSLDGGYLYIAGKCGLVPVLAENYKTEGESCKNTPEKGYLAVAVVKTSDANINWNNLKDKKSCHTAVDRTAGWNIPMGLLYSKINNCKFDEFFSAGCAPGSPRNSSLCALCIGSEKGTGKECVPNSNERYYGYTGAFRCLVEKGDVAFVKDQTVIQNTDGNNNEAWAKNLKKENFEVLCKDGTRKPVTDAENCHLARGPNHAVVSRKDKATCVEKILNKQQDDFGKSVTDCTSNFCLFQSNSKDLLFRDDTKCLASIAKKTYDSYLGDDYVRAMTNLRQCSTSKLLEACTFHKP
modifications: iron-free apo form
Reduction of the % of p-tau+ somas: +++
